# Measured values taken from ChEMBL document CHEMBL4382202, “1-(2-Hydroxybenzoyl)-thiosemicarbazides are promising antimicrobial agents targeting d-alanine-d-alanine ligase in bacterio” (Eur J Med Chem, 2018).
# Experiments:
# [1] = compound: O=C(NNC(=S)Nc1ccc(Cl)c(Cl)c1)c1ccccc1O; assay: Inhibition of Enterococcus faecalis JH2-2 C-terminal 6His-tagged DdlB expressed in Escherichia coli LMG194 assessed as Vmax of ATP at 10 uM by Biomol Green reagent assay (reference value: 89.05 +/- 5.41 microM/min)
# [2] = compound: O=C(NNC(=S)Nc1ccc(Cl)c(Cl)c1)c1ccccc1O; assay: Inhibition of Enterococcus faecalis JH2-2 C-terminal 6His-tagged DdlB expressed in Escherichia coli LMG194 assessed as Km of D-Ala at 1 uM by Biomol Green reagent assay (reference value: 5.62 mM)
# [3] = compound: O=C(NNC(=S)Nc1ccc(Cl)c(Cl)c1)c1ccccc1O; assay: Inhibition of Enterococcus faecalis JH2-2 C-terminal 6His-tagged DdlB expressed in Escherichia coli LMG194 assessed as Vmax of D-Ala at 1 uM by Biomol Green reagent assay (reference value: 61.95 +/- 1.11 microM/min)
# [4] = compound: O=C(NNC(=S)Nc1ccc(Cl)c(Cl)c1)c1ccccc1O; assay: Inhibition of Enterococcus faecalis JH2-2 C-terminal 6His-tagged DdlB expressed in Escherichia coli LMG194 assessed as Vmax of ATP at 1 uM by Biomol Green reagent assay (reference value: 89.05 +/- 5.41 microM/min)
# [5] = compound: O=C(NNC(=S)Nc1ccc(Cl)c(Cl)c1)c1ccccc1O; assay: Inhibition of Enterococcus faecalis JH2-2 C-terminal 6His-tagged DdlB expressed in Escherichia coli LMG194 assessed as Vmax of D-Ala at 10 uM by Biomol Green reagent assay (reference value: 61.95 +/- 1.11 microM/min)
# [6] = compound: O=C(NNC(=S)Nc1ccc(Cl)c(Cl)c1)c1ccccc1O; assay: Inhibition of Enterococcus faecalis JH2-2 C-terminal 6His-tagged DdlB expressed in Escherichia coli LMG194 assessed as Km2 of D-Ala using 500 uM ATP by Biomol Green reagent assay
# [7] = compound: O=C(NNC(=S)Nc1ccc(Cl)c(Cl)c1)c1ccccc1O; assay: Inhibition of Enterococcus faecalis JH2-2 C-terminal 6His-tagged DdlB expressed in Escherichia coli LMG194 assessed as Km of ATP using 50 mM D-Ala substrate by Biomol Green reagent assay
# [8] = compound: O=C(NNC(=S)Nc1ccc(Cl)c(Cl)c1)c1ccccc1O; assay: Inhibition of Enterococcus faecalis JH2-2 C-terminal 6His-tagged DdlB expressed in Escherichia coli LMG194 assessed as Km of D-Ala at 10 uM by Biomol Green reagent assay (reference value: 5.62 mM)
# [9] = compound: O=C(NNC(=S)Nc1ccc(Cl)c(Cl)c1)c1ccccc1O; assay: Inhibition of Enterococcus faecalis JH2-2 C-terminal 6His-tagged DdlB expressed in Escherichia coli LMG194 assessed as Km1 of D-Ala using 500 uM ATP by Biomol Green reagent assay
protein,measurement,setting,value
"D-alanine--D-alanine ligase (Enterococcus faecalis (strain ATCC 700802 / V583)), Q47758 (protein) MKIILLYGGRSEEHDVSVLSAYSVLNAIYYKYYQVQLVFISKDGQWVKGPLLSERPQNKEVLHLTWAQTPEETGEFSGKRISPSEIYEEEAIVFPVLHGPNGEDGTIQGFMETINMPYVGAGVLASANAMDKIMTKYLLQTVGIPQVPFVPVLRSDWKGNPKEVFEKCEGSLIYPVFVKPANMGSSVGISKVENREELQEALEEAFRYDARAIVEQGIEAREIEVAILGNEDVRTTLPGEVVKDVAFYDYDAKYINNTIEMQIPAHVPEEVAHQAQEYAKKAYIMLDGSGLSRCDFFLTSKNELFLNELNTMPGFTDFSMYPLLWENMGLKYSDLIEELIQLALNRFK",Vmax,[1],23.5 µM/min
same,Km,[2],7.01 mM
same,Vmax,[3],48.6 µM/min
same,Vmax,[4],72.1 µM/min
same,Vmax,[5],45.1 µM/min
same,Km,[6],10.5 mM
same,Km,[7],0.691 mM
same,Km,[8],9.63 mM
same,Km,[9],0.487 mM
